Columns and labels:
[1] = target: T1, myc-DAPLE full length F1675A (human, UniProt Q9P219 1-2028); assay: GST pulldown from Cos7 lysates (FIG. 2D)
T1 construct: Expressed in Cos7 cells; used as cell lysate; also called myc-DAPLE FA; DAPLE-FA; not shown: N-terminal myc tag of myc-pcDNA 3.1 (+)
Excerpt: (§1) FIGS. 2A-2N. DAPLE binds and activates Gαi3 in vitro and in vivo via its GBA motif. (A) Prediction of molecular contacts critical for the DAPLE-Gαi interaction. Homology-based model of DAPLE's GBA motif (Red) bound to Gαi3 (green=Switch II, blue=ras-like domain, yellow, all-helical domain) with an enlarged section depicting a putative hydrophobic contact between DAPLE's F1675 and Gαi3's W211/F215. (B) Mutation of residues in the SWII region of Gαi3 disrupts DAPLE binding. Binding of His-DAPLE-CT to GST-Gαi3 WT, W211A or F215A was analyzed exactly as described in FIG. 1D. (C) Mutation of DAPLE F1675 to A abrogates Gαi3 binding. Binding of His-DAPLE-CT WT or F1675A (FA) to GST-Gαi3 was analyzed exactly as described in FIG. 1D. […] Myc-DAPLE WT or F1675A (FA) was expressed in Cos7 and binding to GST-Gαi3 analyzed exactly as described in FIG. 1E. […] Immune complexes were analyzed for DAPLE (myc) and Gαi3 (FLAG) by immunoblotting (IB). was monitored as positive Gαi3-binding control. […] The steady-state GTPase activity of His-Gαi3 alone (black) or in the presence of 2 μM His-DAPLE-CT (blue) was determined by measuring the production of [³²P]Pi at different time points as described in “Methods”. […] GTPγ³⁵S binding to His-Gαi3 at 15 min was determined in the presence of increasing concentrations (0-2 μM) of His-DAPLE-CT WT (blue) or His-DAPLE-CT FA (red).

[2] = target: T2, His-DAPLE-CT (aa 1650-2028) F1675A (human, UniProt Q9P219 1650-2028); assay: GST pulldown, purified proteins (FIG. 2C)
T2 construct: Recombinant, purified from E. coli; also called His-DAPLE-CT FA; DAPLE-CT FA; not shown: His tag and vector residues of pET28b
T2 sequence: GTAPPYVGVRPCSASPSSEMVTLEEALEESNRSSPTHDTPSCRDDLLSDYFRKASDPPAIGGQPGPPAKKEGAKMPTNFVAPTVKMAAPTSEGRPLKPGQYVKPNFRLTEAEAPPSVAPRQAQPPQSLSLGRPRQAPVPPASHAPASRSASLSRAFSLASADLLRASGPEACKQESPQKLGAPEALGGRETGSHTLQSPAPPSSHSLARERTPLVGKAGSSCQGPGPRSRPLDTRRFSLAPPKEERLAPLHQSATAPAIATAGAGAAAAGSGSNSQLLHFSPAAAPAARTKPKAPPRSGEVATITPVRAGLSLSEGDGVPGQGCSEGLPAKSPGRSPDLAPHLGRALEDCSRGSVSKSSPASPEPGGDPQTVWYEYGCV
Excerpt: as §1

B1: GST-Gαi3 preloaded with GDP (inactive) (other, rat, UniProt P08753 1-354, looked up)
chain: MGCTLSAEDKAAVERSKMIDRNLREDGEKAAKEVKLLLLGAGESGKSTIVKQMKIIHEDGYSEDECKQYKVVVYSNTIQSIIAIIRAMGRLKIDFGEAARADDARQLFVLAGSAEEGVMTSELAGVIKRLWRDGGVQACFSRSREYQLNDSASYYLNDLDRISQTNYIPTQQDVLRTRVKTTGIVETHFTFKELYFKMFDVGGQRSERKKWIHCFEGVTAIIFCVALSDYDLVLAEDEEMNRMHESMKLFDSICNNKWFTDTSIILFLNKKDLFEEKIKRSPLTICYPEYTGSNTYEEAAAYIQCQFEDLNRRKDTKEVYTHFTCATDTKNVQFVFDAVTDVIIKNNLKECGLY
notes: Immobilized on glutathione beads; Same polypeptide as m11, other nucleotide state; also called GST-Gαi3 WT; not shown: glutathione S-transferase tag of the pGEX-4T-1 vector
**Q.** Does B1 bind [1]?
**A.** no binding

**Q.** Does B1 bind [2]?
**A.** no binding
